Assays:
[1] = biological target: T1, recombinant human TIM-4 His (R&D, Cat#2929-TM) (human, UniProt Q96H15 25-315); experiment: Luminex suspension array, antigen coupled to beads
T1 construct: also called rhTIM-4 His
T1 sequence (looked up): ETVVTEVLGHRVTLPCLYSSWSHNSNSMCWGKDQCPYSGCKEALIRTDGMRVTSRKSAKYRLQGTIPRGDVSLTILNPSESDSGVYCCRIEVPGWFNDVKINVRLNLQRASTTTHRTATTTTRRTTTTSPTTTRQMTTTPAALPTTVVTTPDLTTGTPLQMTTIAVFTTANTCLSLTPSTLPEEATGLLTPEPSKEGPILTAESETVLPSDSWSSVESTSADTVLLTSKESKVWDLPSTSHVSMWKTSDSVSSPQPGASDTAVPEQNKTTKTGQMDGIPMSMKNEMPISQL

[2] = biological target: T2, recombinant human TIM-1 His (R&D Systems, Cat#1750-TM) (human, UniProt Q96D42 21-295); experiment: Luminex suspension array, antigen coupled to beads
T2 construct: also called rhTIM-1 His
T2 sequence (looked up): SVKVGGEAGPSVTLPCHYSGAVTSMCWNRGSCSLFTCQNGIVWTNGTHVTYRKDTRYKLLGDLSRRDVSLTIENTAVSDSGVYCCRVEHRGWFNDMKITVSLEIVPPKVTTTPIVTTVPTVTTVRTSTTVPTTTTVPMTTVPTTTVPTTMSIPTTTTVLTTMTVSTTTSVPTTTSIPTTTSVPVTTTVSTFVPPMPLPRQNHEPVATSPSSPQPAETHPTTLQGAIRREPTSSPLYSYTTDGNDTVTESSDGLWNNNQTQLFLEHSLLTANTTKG

[3] = biological target: T3, recombinant human TIM-3 Fc (R&D Systems, Cat#2365-TM) (human, UniProt P01857-1 100-330 = IgG part); experiment: Luminex suspension array, antigen coupled to beads
T3 construct: also called rhTIM-3 Fc; human TIM-3/Fc chimera

[4] = biological target: T4, human TIM-3 expressed on cells (human, UniProt Q8TDQ0 22-301); experiment: flow cytometry, 1624-5 cells expressing human TIM-3
T4 construct: also called T cell immunoglobulin and mucin domain-3; HAVCR2
T4 sequence: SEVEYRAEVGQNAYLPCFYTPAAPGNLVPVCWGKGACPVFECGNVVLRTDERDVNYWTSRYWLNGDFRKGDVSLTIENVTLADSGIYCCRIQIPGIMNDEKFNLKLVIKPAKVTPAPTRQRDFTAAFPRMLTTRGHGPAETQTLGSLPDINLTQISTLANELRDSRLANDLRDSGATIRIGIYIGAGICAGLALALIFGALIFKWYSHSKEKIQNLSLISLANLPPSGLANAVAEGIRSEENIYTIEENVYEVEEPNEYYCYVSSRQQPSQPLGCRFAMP

binding result [3]: binds
binding result [4]: binds
B1: pab2088 (IgG1) (antibody, V domains shown)
VH: not shown
VL: DIQMTQSPSSLSASVGDRVTITCRASQGISNYLAWYQQKPGKVPKLLIYAASTLQSGVPSRFSGSGSGTDFTLTISRLEPEDFAVYYCQQYGSSPLTFGGGTKVEIK
binding result [1]: no binding (tested: 10 ng/ml, 100 ng/ml, and 1000 ng/ml)
binding result [2]: no binding (tested: 10 ng/ml, 100 ng/ml, and 1000 ng/ml)
